The values that follow come from publication PMC9972960.

For test [1], the target named is purified vaccine protein with HA from influenza A/PR/8/1934 (H1N1), without the C-terminal trimerization domain (influenza A/PR/8/1934 (H1N1)) (UniProt P03452). The experiment in a line: SEC.
Test [2] has the same target. The experiment in a line: native gel or EMSA. For orientation: A gel shift assay detects complexes by their altered migration in electrophoresis.

Broadly, the stoichiometry N is the number of molecules, sites or subunits per partner or assembly.

“purified vaccine protein with HA from influenza A/PR/8/1934 (H1N1), without the C-terminal trimerization domain (from UniProt P03452 18-541)”: the stoichiometry N in test [1] and in test [2] was 3 each time.
